One test deals with T1, GST-Grk2 (Homo sapiens, UniProt P25098).
T1 construct: recombinant GST fusion from Sf9 cells, commercial
T1 sequence (P25098 1-689): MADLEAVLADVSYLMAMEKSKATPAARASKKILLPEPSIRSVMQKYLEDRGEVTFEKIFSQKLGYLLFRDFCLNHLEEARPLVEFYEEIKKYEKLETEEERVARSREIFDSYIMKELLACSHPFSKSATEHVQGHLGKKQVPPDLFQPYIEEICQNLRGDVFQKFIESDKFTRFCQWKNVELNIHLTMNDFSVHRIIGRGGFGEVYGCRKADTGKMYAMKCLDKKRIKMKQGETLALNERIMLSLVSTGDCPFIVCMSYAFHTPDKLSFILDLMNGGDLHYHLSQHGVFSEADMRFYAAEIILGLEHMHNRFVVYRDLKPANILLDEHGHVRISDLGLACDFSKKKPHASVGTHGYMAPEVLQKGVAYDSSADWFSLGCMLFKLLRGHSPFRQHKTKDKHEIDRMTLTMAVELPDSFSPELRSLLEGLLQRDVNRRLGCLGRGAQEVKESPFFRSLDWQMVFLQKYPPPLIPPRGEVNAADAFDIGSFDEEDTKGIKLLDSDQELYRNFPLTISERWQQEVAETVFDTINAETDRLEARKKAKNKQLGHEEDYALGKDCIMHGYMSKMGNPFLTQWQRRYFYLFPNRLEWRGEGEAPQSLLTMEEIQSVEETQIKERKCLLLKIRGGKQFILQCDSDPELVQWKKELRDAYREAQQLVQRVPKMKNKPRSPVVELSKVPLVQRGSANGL
The test is described as follows: ADP-Glo kinase assay with tubulin. Type of test: biochemical. Conditions: […] ATP, […] pig brain tubulin, […] MgCl2, pH […] °C; no P-Rex1.

The target of test [1] is T2, Recombinant human wild type EE-P-Rex1 (human, UniProt Q8TCU6 1-1659).
T2 construct: source: baculovirus-infected Sf9 cells, purified using the EE tag
T2 sequence (Q8TCU6 whole entry): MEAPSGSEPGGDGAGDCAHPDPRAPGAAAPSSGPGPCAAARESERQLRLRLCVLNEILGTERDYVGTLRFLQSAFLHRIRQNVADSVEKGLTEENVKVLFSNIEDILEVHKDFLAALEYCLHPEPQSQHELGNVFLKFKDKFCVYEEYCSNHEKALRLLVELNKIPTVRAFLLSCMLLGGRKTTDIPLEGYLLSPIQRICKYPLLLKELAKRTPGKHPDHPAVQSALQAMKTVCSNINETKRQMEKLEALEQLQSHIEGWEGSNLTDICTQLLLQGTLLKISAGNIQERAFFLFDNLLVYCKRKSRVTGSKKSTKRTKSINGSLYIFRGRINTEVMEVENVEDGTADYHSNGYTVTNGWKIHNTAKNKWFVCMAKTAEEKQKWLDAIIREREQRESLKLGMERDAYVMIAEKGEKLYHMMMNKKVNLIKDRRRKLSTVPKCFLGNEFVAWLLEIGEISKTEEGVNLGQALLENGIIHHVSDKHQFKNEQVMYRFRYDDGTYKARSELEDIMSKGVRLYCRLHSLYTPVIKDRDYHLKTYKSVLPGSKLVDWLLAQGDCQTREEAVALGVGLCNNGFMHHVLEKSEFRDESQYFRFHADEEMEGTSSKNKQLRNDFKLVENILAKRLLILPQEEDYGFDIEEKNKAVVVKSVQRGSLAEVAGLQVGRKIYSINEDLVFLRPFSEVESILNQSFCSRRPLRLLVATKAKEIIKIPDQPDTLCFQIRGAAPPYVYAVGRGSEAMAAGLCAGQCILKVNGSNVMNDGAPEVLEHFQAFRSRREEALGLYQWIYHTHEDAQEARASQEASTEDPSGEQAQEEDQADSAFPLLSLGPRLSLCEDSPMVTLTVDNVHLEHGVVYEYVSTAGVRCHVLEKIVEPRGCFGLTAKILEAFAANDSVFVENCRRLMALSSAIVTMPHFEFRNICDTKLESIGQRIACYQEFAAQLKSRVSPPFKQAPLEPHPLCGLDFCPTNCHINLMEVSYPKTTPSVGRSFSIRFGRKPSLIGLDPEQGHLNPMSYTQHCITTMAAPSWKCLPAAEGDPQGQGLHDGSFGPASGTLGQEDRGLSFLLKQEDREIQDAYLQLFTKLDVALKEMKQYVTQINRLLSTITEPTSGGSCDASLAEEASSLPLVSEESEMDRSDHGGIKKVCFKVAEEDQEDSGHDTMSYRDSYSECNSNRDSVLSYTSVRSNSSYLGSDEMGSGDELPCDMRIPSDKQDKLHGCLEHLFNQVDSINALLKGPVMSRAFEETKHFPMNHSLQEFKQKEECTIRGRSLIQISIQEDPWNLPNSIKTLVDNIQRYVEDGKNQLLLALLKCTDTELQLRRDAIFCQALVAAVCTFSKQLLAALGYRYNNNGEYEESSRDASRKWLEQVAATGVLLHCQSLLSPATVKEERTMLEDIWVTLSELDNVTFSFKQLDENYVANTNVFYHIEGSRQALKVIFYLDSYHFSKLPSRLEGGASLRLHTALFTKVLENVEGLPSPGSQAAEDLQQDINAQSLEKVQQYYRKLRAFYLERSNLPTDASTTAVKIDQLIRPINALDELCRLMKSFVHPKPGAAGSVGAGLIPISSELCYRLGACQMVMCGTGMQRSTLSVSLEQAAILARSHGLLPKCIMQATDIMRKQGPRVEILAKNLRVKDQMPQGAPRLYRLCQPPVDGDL
Description: pull-down; as the GST-Grk2 pull-down of EE-P-Rex1, with increasing concentrations of prenylated EE-Gβ1γ2 (up to 20 pmol per sample) added during the binding assay; 0.008% cholate in all samples. Conditions: both partners purified.

The target in test [2] is T3, GEF-dead His-P-Rex2 (P-Rex2 E30A,N212A) (human, UniProt Q70Z35 1-1606, E30A | N212A).
T3 construct: P-Rex2, human, with alanine mutations at Glu30 and Asn212 in the catalytic DH domain; also called GEF-dead P-Rex2; source: baculovirus-infected Sf9 cells, purified (Ni-NTA agarose, PD-10 desalting); not shown: 6His, N-terminal, kept
T3 sequence (Q70Z35 whole entry E30A/N212A, the tested form may be a part): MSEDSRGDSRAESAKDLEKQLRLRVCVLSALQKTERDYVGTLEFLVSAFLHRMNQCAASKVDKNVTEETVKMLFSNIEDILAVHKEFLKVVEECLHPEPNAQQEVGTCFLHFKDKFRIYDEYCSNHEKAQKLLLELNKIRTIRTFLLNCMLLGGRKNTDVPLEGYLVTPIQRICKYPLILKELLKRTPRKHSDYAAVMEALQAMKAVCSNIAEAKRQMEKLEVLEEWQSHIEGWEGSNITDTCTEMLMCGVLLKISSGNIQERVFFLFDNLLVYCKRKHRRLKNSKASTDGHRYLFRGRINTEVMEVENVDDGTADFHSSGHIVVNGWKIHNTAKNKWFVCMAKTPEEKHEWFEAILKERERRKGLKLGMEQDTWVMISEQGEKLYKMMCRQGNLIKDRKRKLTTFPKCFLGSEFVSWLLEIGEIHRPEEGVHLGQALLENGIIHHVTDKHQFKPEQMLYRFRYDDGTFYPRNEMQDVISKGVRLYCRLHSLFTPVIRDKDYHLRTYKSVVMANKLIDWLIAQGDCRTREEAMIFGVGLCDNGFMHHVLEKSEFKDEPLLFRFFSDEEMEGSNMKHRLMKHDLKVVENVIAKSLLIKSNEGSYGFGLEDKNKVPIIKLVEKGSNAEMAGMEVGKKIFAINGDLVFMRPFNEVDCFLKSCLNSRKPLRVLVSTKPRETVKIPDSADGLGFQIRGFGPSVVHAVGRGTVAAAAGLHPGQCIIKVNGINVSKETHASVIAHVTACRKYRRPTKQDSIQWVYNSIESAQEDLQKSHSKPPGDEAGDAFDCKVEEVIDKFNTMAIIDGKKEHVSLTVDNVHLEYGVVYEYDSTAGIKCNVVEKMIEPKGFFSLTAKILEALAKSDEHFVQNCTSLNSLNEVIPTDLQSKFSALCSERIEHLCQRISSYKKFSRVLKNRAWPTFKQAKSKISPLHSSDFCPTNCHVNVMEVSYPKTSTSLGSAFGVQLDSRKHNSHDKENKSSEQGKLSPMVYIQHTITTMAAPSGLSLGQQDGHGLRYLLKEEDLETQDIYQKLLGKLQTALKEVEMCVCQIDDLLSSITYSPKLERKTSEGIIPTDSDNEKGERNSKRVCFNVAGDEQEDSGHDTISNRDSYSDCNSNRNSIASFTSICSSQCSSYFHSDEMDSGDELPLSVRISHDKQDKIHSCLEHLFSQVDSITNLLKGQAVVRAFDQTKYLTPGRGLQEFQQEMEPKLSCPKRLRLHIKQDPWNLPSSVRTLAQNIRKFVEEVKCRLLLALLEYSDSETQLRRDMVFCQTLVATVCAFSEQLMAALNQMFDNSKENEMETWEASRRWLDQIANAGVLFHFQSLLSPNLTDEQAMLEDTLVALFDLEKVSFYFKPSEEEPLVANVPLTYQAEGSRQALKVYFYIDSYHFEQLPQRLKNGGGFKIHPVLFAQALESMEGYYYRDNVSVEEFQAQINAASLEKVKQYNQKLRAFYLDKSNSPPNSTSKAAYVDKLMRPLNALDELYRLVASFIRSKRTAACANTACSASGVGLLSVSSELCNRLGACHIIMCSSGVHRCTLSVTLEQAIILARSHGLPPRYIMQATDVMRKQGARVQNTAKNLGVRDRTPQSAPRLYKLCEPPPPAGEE
The test is described as follows: pull-down; 5 pmol P-Rex1 or P-Rex2 protein (2.5 pmol for P-Rex1 mutants) with 5 pmol GST, GST-Grk2 or GST-Grk5 in 20 μL detergent-free buffer (50 mM HEPES pH 7.2, 150 mM NaCl), 1 h on ice; GST proteins isolated on magnetic glutathione agarose, 45 min at 4°C, 4 washes in lysis buffer 2 (1% NP-40); western blot with P-Rex1 or P-Rex2 and GST antibodies. Conditions: both partners purified. (In general: In western blotting, separated proteins are transferred to a membrane and probed.)

For test [3], the target named is T4, GEF-dead EE-P-Rex1 (E56A, N238A) (human, UniProt Q8TCU6 1-1659, E56A | N238A).
T4 construct: P-Rex1, human, with point mutations E56A and N238A in the DH domain that abolish Rac-GEF activity; also called GEF-dead P-Rex1; source: baculovirus-infected Sf9 cells, purified using the EE tag
T4 sequence (Q8TCU6 whole entry E56A/N238A, the tested form may be a part): as the sequence (Q8TCU6 whole entry) above, with E56A, N238A counted along it
The description is as above. Conditions: both partners purified.

Test [4] concerns the target T5, Recombinant human wild type His-P-Rex2 (human, UniProt Q70Z35 1-1606).
T5 construct: source: baculovirus-infected Sf9 cells, purified (Ni-NTA agarose, PD-10 desalting); not shown: 6His, N-terminal, kept
Described as above. Conditions: both partners purified.

T5 sequence (Q70Z35 whole entry): as the sequence (Q70Z35 whole entry E30A/N212A, the tested form may be a part) above, with A30E, A212N counted along it

Turning to `Nc1ncnc2c1ncn2[C@@H]1O[C@H](COP(=O)(O)OP(=O)(O)OP(=O)(O)O)[C@@H](O)[C@H]1O` [ATP], the “ADP-Glo kinase assay with tubulin” value on GST-Grk2 is given as “GST-Grk2 was able to phosphorylate tubulin”.

B1: Recombinant human GST-Grk2 (enzyme, UniProt P25098 1-689, looked up)
chain: T1 sequence (P25098 1-689)
notes: G protein-coupled receptor kinase 2 (Grk2), human, Sf9 cell-derived recombinant GST fusion; also called G protein-coupled receptor kinase 2; source: bought: Abcam (ab125620), Sf9 cell-derived, purified recombinant
B1: the binding result in test [1], in test [2], in test [3] and in test [4] was “binds” each time.

(Values after PMC12569377, “P-Rex1 limits the agonist-induced internalization of GPCRs independently of its Rac-GEF activity” (Cell Reports, 2025).)
